{"source": "patent US20220315908A1", "about": "“NOVEL GARDNERELLA ENDOLYSINS AND USES THEREOF” (priority 2019, published 2022)", "molecules": {"B1": {"name": "H2B2: natural Gardnerella prophage endolysin from strain Gv18-4 (protein)", "chain": "MSKRGIDVSEWQGDIDFNAVKASGVEFVIIRAGYGIGCKDKWFEQNYRKAKTCGLDVGAYWYSYANSGFEAAEEAQSCVNMLSGKSFEYPVYFDLEEKSQLNRGRAFCDSLITGFCNKLESCGYYAGFYTSLSTANNLVSAHVRNRYALWIAQWNTHCSYQGSYGLWQYSSSGSVPGVAGRVDMDYAYVDYPSIIKNVGLNGCKNGGSDQAARTSSIDEVAREVINGAWGNGNERKQRLTSAGYDYASVQNKVNELLGVKACRKSVDEIAREVIRGTWGNGSTRKQRLTQAGYDYDTVQKRVNELL", "modifications": "EL2_strain_Gv18-4"}, "B2": {"name": "H1B1: natural Gardnerella prophage endolysin from strain HMP9231 (protein)", "chain": "MSKKGIDVSEWQGDIDFNAVKASGVEFVIIRAGYGIGCKDKWFEQNYRKAKTAGLDVGAYWYSYANSGFEAAEEAQSLMNMLSGKSFEYPVYFDLEEKSQLNRGRAFCDSLITSFCNKLEACGYYAGFYTSLSTANNLVSAHVRNRYALWIAQWNTHCNYQGSYGLWQYSSNGSVPGVAGRVDMDYAYVDYPSIIKNAGLNGCKNGGSDQAARTSSIDEVAREVINGAWGNGSTRKQRLTSAGYDYASVQNKVNELLGVKACRKSVDELAREVIRGAWGNGSTRKQRLAQAGYDYDTVQKRVNELL", "modifications": "EL1_strain_HMP9231", "notes": "natural Gardnerella prophage endolysin from strain HMP9231"}, "B3": {"name": "H4B4: natural Gardnerella prophage endolysin from strain Gv5-1 (protein)", "chain": "MSKKGIDVSEWQGDIDFNAVKASGVEFVIIRAGYGIGCKDKWFEQNYRKAKTCGLDVGAYWYSYANSGFEAAEEAQSCVNMLSGKSFEYPVYFDLEEKSQLNRGRAFCDSLITSFCSKLETYGYYAGFYTSLSVVNNLVSAHVRDRYALWIAQWNTHCSYQGSYGLWQYSSSGSVPGVAGRVDMDYAYVDYPSIIKNVGLNGCKNGGSDQATRTSSIDEVAREVINGAWGNGNERKQRLTSAGYDYASVQNKVNKLLGVKAYRKSVDELAREVIRGTWGNGNERKQRLAQAGYDYDTVQKRVNELL", "modifications": "EL4_strain_Gv5-1"}, "B4": {"name": "H3B3: natural Gardnerella prophage endolysin from strain Gv18-4 (protein)", "chain": "MSKKGIDVSVWQGDIDFNSVKASGVEFVIIRAGYGIGHKDKWFEENYRKAKTAGLDVGSYWYSYASSAGEASEEAQSCVNILSGKSFEYPIYFDLEEKSQLNRGRDFCDSLITSFCNKLEACGYYAGFYTSLSVANNLVSSHVRDRYALWIAQWNTHCSYQGSYGLWQYSSSGSVNGIAGRVDMDYAYVDYPSVIKNAGLNGYQNGGSYTAPQTSSIDEVAREVINGDWGNGNDRKNRLISAGYDYASVQNKVNELLGVKAYRKSVDELAREVIRGTWGNGSMRKHRLTQAGYDYDAVQKRVNELL", "modifications": "EL3_strain_Gv18-4"}}, "data": [{"system": "four Gardnerella strains (Gv_9, Gv_11, Gv_17, Gv_23)", "assay": "CFU reduction averaged across the four Gardnerella strains, with activity ranks", "type": "cell-based", "settings": "pH 5.0, 5 hours, anaerobic", "description": "(§1) The lysis activity on the four main species of Gardnerella of 91 constructs (natural and domain-swapped endolysins) was quantitatively assessed using the method described in Reference Example 2. Briefly, 90 ul 5e7 CFU/ml of the indicated strain were incubated for 5 hours at pH 5.0 under anaerobic conditions with 10 ul endolysin (concentration adjusted to 0.2 mg/ml where possible, see Table 4).\n(§2) The results are shown in FIGS. 8A to 8D together with Tables 5A to 5C. In FIGS. 8A to 8D, the logarithmic Y axis depicts the count of surviving cells. The dotted line indicates the limit of detection (LOD) given by plating of 2 ul of the reaction mix (500 CFU/ml). Each combination of the natural 10 H-domains and the natural 9 B-regions was assessed, including the natural endolysins (H1B1, H2B2, H3B3, etc.), plus H6B6. […] The activity of each construct was measured on each of the 4 main Gardnerella species G. vaginalis sensu stricto, G. leopoldii, G. piotii, and G. swidsinkii. All conditions have been measured in triplicate. The survival after 5 hours incubation at pH 5.0 under anaerobic conditions with endolysins vs. buffer was measured by quantitative plating. The values indicate the log 10 of the ratio of surviving CFU for treated vs. untreated cells. The average of the triplicate measurements is used. In tables 5A and 5B, high negative log 10 values, e.g. −6.7, −5.5, −4.8 etc. are associated with high enzymatic activity, while log 10 values closer to zero or even positive log 10 values are associated with low or no enzymatic activity. […] Inversely, a reduction value of −3.7 means a 10^3.7-fold (=5012-fold) reduction of viable CFU in treated sample vs. untreated control.\n(§3) Gardnerella cells were recovered from cryo stock by plating on Chocolate Agar plates (Beckton Dickinson) and incubating for 48 h at 37° C. under anaerobic conditions. For Lactobacilli, BD Schaedler/5% sheep blood agar plates were used instead. Colonies were scraped from the plate, resuspended in Hardy Broth or NYC-III-HS-5.0 at the pH as indicated, and the suspension adjusted to OD (610 or 620 nm as indicated) 0.1. It has to be noted that two Tecan Microplate readers, having respectively a 610 nm or 620 nm filter, have been used interchangeably in the experiments. Although it doesn't make any difference for the experiments, the exact wavelength used is specified in each example. If not stated otherwise, 90 μl cell suspension was mixed with 10 μl endolysin solution, for the different species/endolysin combinations, in 384-well plates. OD(610-620 nm as indicated) was measured at the beginning of the reaction and at the end, either as two measurement points or as a continuous kinetic in a Tecan F200 Microplate reader. The reactions were incubated for 5 hours (or otherwise the time indicated) at 37° C. under anaerobic, micro-aerophilic or aerobic conditions as indicated. Anaerobic conditions intend that oxygen was fully depleted from the container in which the bacteria are incubated (Sigma-Aldrich anaerobic jar or sealable lunch box) with an anaerobic sachet, and the lack of oxygen was confirmed with an anaerobic indicator inside the container. Where micro-aerophilic conditions are indicated, the candle-in-a-jar method was used (tea candle lit in an appropriate sealable container, which reduces oxygen levels until the flame dies out).", "units": {"average of the log 10 activities of each construct across the four Gardnerella strains": "log 10"}, "values": [{"molecule": "B1", "average of the log 10 activities of each construct across the four Gardnerella strains": "−2.6"}, {"molecule": "B2", "average of the log 10 activities of each construct across the four Gardnerella strains": "−1.9"}, {"molecule": "B3", "average of the log 10 activities of each construct across the four Gardnerella strains": "−0.8"}, {"molecule": "B4", "average of the log 10 activities of each construct across the four Gardnerella strains": "−3.0"}]}, {"system": "four Gardnerella strains (Gv_9, Gv_11, Gv_17, Gv_23)", "assay": "CFU reduction averaged across the four Gardnerella strains, with activity ranks", "type": "cell-based", "settings": "rank 1-91, based on the data of Table 5B", "description": "as §1, §2, §3", "values": [{"molecule": "B1", "activity rank of all endolysins": 25}, {"molecule": "B2", "activity rank of all endolysins": 44}, {"molecule": "B3", "activity rank of all endolysins": 76}, {"molecule": "B4", "activity rank of all endolysins": 13}]}, {"system": "G. swidsinskii strain Gv_23", "assay": "Quantitative reduction in viable CFU assay in bacterial suspension", "type": "cell-based, Gardnerella swidsinskii", "settings": "5 hours, pH 5.0, anaerobic, 10 ul endolysin (0.2 mg/ml where possible) + 90 ul 5e7 CFU/ml, average of triplicate", "description": "as §1, §2\nas §3, with “out). Then each well was diluted in 5 steps (10^−1 to 10^−5) using 96-U-well bottom plates, and 2 μl of each dilution of each reaction mix are plated on BD Chocolate agar plates or BD Schaedler/5% sheep blood agar plates for Gardnerella and Lactobacilli, respectively, for detecting and quantifying surviving CFU. Detection plates were incubated at 37° C. for 48 hours under anaerobic conditions.” for “out).”", "units": {"log 10 of the ratio of surviving CFU for treated vs. untreated cells": "log 10"}, "values": [{"molecule": "B1", "log 10 of the ratio of surviving CFU for treated vs. untreated cells": "−5.4"}, {"molecule": "B2", "log 10 of the ratio of surviving CFU for treated vs. untreated cells": "−3.5"}, {"molecule": "B3", "log 10 of the ratio of surviving CFU for treated vs. untreated cells": "−2.0"}, {"molecule": "B4", "log 10 of the ratio of surviving CFU for treated vs. untreated cells": "−5.4"}]}, {"system": "G. piotii strain Gv_17", "assay": "Quantitative reduction in viable CFU assay in bacterial suspension", "type": "cell-based, Gardnerella piotii", "settings": "5 hours, pH 5.0, anaerobic, 10 ul endolysin (0.2 mg/ml where possible) + 90 ul 5e7 CFU/ml, average of triplicate", "description": "as §1, §2\nas §3, with “out). Then each well was diluted in 5 steps (10^−1 to 10^−5) using 96-U-well bottom plates, and 2 μl of each dilution of each reaction mix are plated on BD Chocolate agar plates or BD Schaedler/5% sheep blood agar plates for Gardnerella and Lactobacilli, respectively, for detecting and quantifying surviving CFU. Detection plates were incubated at 37° C. for 48 hours under anaerobic conditions.” for “out).”", "units": {"log 10 of the ratio of surviving CFU for treated vs. untreated cells": "log 10"}, "values": [{"molecule": "B1", "log 10 of the ratio of surviving CFU for treated vs. untreated cells": "−2.5"}, {"molecule": "B2", "log 10 of the ratio of surviving CFU for treated vs. untreated cells": "−0.9"}, {"molecule": "B3", "log 10 of the ratio of surviving CFU for treated vs. untreated cells": "−0.4"}, {"molecule": "B4", "log 10 of the ratio of surviving CFU for treated vs. untreated cells": "−1.5"}]}]}
